# Experimental data taken from paper PMC10302205, “Saccharomyces cerevisiae Δ9-desaturase Ole1 forms a supercomplex with Slc1 and Dga1” (The Journal of Biological Chemistry, 2023).
# B1: NubG-Dga1 (full-length NubG-Dga1 fusion) [S. cerevisiae] / Ole1-Myc-Cub-LexA-VP16 [S. cerevisiae] (parent complex)
# chain 1: MSGTFNDIRRRKKEEGSPTAGITERHENKSLSSIDKREQTLKPQLESCCPLATPFERRLQTLAVAWHTSSFVLFSIFTLFAISTPALWVLAIPYMIYFFFDRSPATGEVVNRYSLRFRSLPIWKWYCDYFPISLIKTVNLKPTFTLSKNKRVNEKNYKIRLWPTKYSINLKSNSTIDYRNQECTGPTYLFGYHPHGIGALGAFGAFATEGCNYSKIFPGIPISLMTLVTQFHIPLYRDYLLALGISSVSRKNALRTLSKNQSICIVVGGARESLLSSTNGTQLILNKRKGFIKLAIQTGNINLVPVFAFGEVDCYNVLSTKKDSVLGKMQLWFKENFGFTIPIFYARGLFNYDFGLLPFRAPINVVVGRPIYVEKKITNPPDDVVNHFHDLYIAELKRLYYENREKYGVPDAELKIVG
# chain 2: MPTSGTTIELIDDQFPKDDSASSGIVDEVDLTEANILATGLNKKAPRIVNGFGSLMGSKEMVSVEFDKKGNEKKSNLDRLLEKDNQEKEEAKTKIHISEQPWTLNNWHQHLNWLNMVLVCGMPMIGWYFALSGKVPLHLNVFLFSVFYYAVGGVSITAGYHRLWSHRSYSAHWPLRLFYAIFGCASVEGSAKWWGHSHRIHHRYTDTLRDPYDARRGLWYSHMGWMLLKPNPKYKARADITDMTDDWTIRFQHRHYILLMLLTAFVIPTLICGYFFNDYMGGLIYAGFIRVFVIQQATFCINSLAHYIGTQPFDDRRTPRDNWITAIVTFGEGYHNFHHEFPTDYRNAIKWYQYDPTKVIIYLTSLVGLAYDLKKFSQNAIEEALIQQEQKKINKKKAKINWGPVLTDLPMWDKQTFLAKSKENKGLVIISGIVHDVSGYISEHPGGETLIKTALGKDATKAFSGGVYRHSNAAQNVLADMRVAVIKESKNSAIRMASKRGEIYETGKFF
# Variants of: B1
# Test: integrated membrane yeast two-hybrid assay (β-galactosidase reporter); n = 3 biological replicates; parent: 1; read off a plot
row,Variant,ratio to parent
1,"chain 1 K397A, chain 1 R398A, chain 1 D411A, chain 1 E413A, chain 1 K415A",~0.2
2,"chain 1 R404A, chain 1 E405A, chain 1 K406A",~0.84
